The supplement of paper PMC12042874
± gives the uncertainty stated by the source.

Assay: amyloid nucleation score (Sup35N fusion, yeast selection) (log enrichment); library NNK3; higher = more nucleation; inactive = no reads after selection
Procedure, shortened: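 Plasmid inserts were Illumina-sequenced at input and output from psi-negative yeast expressing Sup35N fused to peptides of 20 random codons. The yeast were induced with 100 μM copper sulfate for 24 hours and grown 7 days at 30°C on medium lacking adenine and uracil, and sequences with under 100 input reads were excluded. Nucleation score is the DiMSum log enrichment of output over input reads, centred on the mode score of non-aggregating sequences.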
For MTRKYQNR, the amyloid nucleation score was “inactive”.
For MVCEKERTWVTSRHWLERYR, the amyloid nucleation score was -0.203 ± 1.3.
For MVGVGSKLGLLAATEVWNEI, the amyloid nucleation score was “inactive”.
Work on MVLLI yielded an amyloid nucleation score of -0.031 ± 1.
MVRNRNYSLIYGWVPIQDEE showed an amyloid nucleation score of 1.82 ± 0.099.
With MVSGH the amyloid nucleation score was “inactive”.
In the case of MVVIIFDWIPHLFNLYMYVI, the amyloid nucleation score is reported as “inactive”.
With MVVMRKSVETTYYWLILAIF the amyloid nucleation score was “inactive”.
In the case of MVVQRNDYIVSVFSTLFPRS, the amyloid nucleation score is reported as 1.6 ± 0.096.
In the case of MWLSTVDRHHINSQALENVD, the amyloid nucleation score is reported as “inactive”.
For MWLVFLTKQNYNNKVQTG, the amyloid nucleation score was “inactive”.
In the case of MYCSTYTVFYYAGIRVLCGD, the amyloid nucleation score is reported as 1.28 ± 0.14.
For MYFMGLFFMTGVGFSMKEVE, the amyloid nucleation score was “inactive”.
In the case of MYLDIESDMSNTGAE, the amyloid nucleation score is reported as “inactive”.
In the case of MYMIWSWCVQMLVNLNHAMA, the amyloid nucleation score is reported as “inactive”.
In the case of MYSHLNTCTTAKPQVFCSKL, the amyloid nucleation score is reported as “inactive”.
For MYTMSHSGLVLALFDAGSWR, the amyloid nucleation score was “inactive”.
With NACTF the amyloid nucleation score was “inactive”.
For NAMCR, the amyloid nucleation score was “inactive”.
For NAQWLYCINSD, the amyloid nucleation score was “inactive”.
With NASLI the amyloid nucleation score was “inactive”.
With NAVLEFTPMFMFRTLSGRRV the amyloid nucleation score was “inactive”.
In the case of NAYSKNVFQHVGMHTWSWYL, the amyloid nucleation score is reported as “inactive”.
With NAYSSLQWREIVSHIYQSCQ the amyloid nucleation score was “inactive”.
NCCNPCFVNLQSR gave an amyloid nucleation score of 2.66 ± 0.066.
For NCGNAPFGFVRP, the amyloid nucleation score was “inactive”.
In the case of NCIAWYQW, the amyloid nucleation score is reported as -0.393 ± 0.7.
In the case of NCINVYGNTNLLRGPVGTSG, the amyloid nucleation score is reported as “inactive”.
With NCLLTFDQNYTRGIPAKI the amyloid nucleation score was “inactive”.
In the case of NCMYSLSMQREPFYPSRGVD, the amyloid nucleation score is reported as “inactive”.
For NCNTVKYGMFGAWSNSAV, the amyloid nucleation score was 0.313 ± 0.18.
With NCQLLKLDSGSLSLCRWVHS the amyloid nucleation score was “inactive”.
With NCRFEGLDKSTS the amyloid nucleation score was “inactive”.
In the case of NDCRCTIFAAYIKILYKFLG, the amyloid nucleation score is reported as 1.13 ± 0.097.
In the case of NDFIVECMTVESS, the amyloid nucleation score is reported as “inactive”.
For NDGFQYRGHRWCLYNHL, the amyloid nucleation score was “inactive”.
In the case of NDQAYMFYIGVYTTLCIGLK, the amyloid nucleation score is reported as “inactive”.
For NDRVIRVGVN, the amyloid nucleation score was “inactive”.
In the case of NDSGAPPLPSGLQPLHH, the amyloid nucleation score is reported as “inactive”.
With NDTFNAK the amyloid nucleation score was “inactive”.
In the case of NDVKFGSGR, the amyloid nucleation score is reported as “inactive”.
In the case of NEHSYLSGSWYPRSHLIYYC, the amyloid nucleation score is reported as “inactive”.
For NEICEHTSVVLLR, the amyloid nucleation score was “inactive”.
Substance NEQVGDGLFCP has an amyloid nucleation score of -0.057 ± 0.75.
For NFFVTFICAFEEAYMTKQLR, the amyloid nucleation score was 2 ± 0.082.
With NFGLFREVGLFIRLWIANAA the amyloid nucleation score was “inactive”.
NFGVMLGVNTLSMSSRVVLG gave an amyloid nucleation score of 0.6 ± 0.26.
For NFKNMEWFLST, the amyloid nucleation score was “inactive”.
For NFLWYCV, the amyloid nucleation score was 1.75 ± 0.089.
In the case of NFPNPVVSNLRAYFMD, the amyloid nucleation score is reported as -0.371 ± 0.96.
With NFPYLAVFLRGFSFSVIDC the amyloid nucleation score was “inactive”.
With NFRNRMRVLFSCS the amyloid nucleation score was “inactive”.
For NGFCCM, the amyloid nucleation score was “inactive”.
In the case of NGFIILADCQMVCLRTSDLM, the amyloid nucleation score is reported as 1.77 ± 0.065.
For NGFVI, the amyloid nucleation score was “inactive”.
With NGILKPETVRQI the amyloid nucleation score was “inactive”.
In the case of NGINNCSEIKHVCTGLANPV, the amyloid nucleation score is reported as “inactive”.
With NGLLNRQSTSWWSTLNYCGD the amyloid nucleation score was “inactive”.
In the case of NGLPARRV, the amyloid nucleation score is reported as “inactive”.
With NGMAFGSRVNRLGGCSEVEV the amyloid nucleation score was “inactive”.
With NGTNPSYNKNCFSVFVESFN the amyloid nucleation score was “inactive”.
Work on NGWNVMYLFMCRVNSARSIL yielded an amyloid nucleation score of 1.77 ± 0.081.
In the case of NHLGM, the amyloid nucleation score is reported as “inactive”.
In the case of NHLLFSIPRSIRWKACVQ, the amyloid nucleation score is reported as “inactive”.
For NHYLT, the amyloid nucleation score was “inactive”.
With NIFDFVFDEFRLAQPMYKCC the amyloid nucleation score was “inactive”.
NIFSQWYIISCLFRGKLCEH showed an amyloid nucleation score of 1 ± 0.13.
With NIFWP the amyloid nucleation score was “inactive”.
For NIGRNMLRCVNLTT, the amyloid nucleation score was “inactive”.
NIGWV gave an amyloid nucleation score of -0.568 ± 1.3.
In the case of NILFWSF, the amyloid nucleation score is reported as “inactive”.
For NILGLKCPSYYPQHVSCGYY, the amyloid nucleation score was “inactive”.
In the case of NILMAGDMHSRA, the amyloid nucleation score is reported as “inactive”.
For NKCSVMCHLDGVTWVPERAV, the amyloid nucleation score was “inactive”.
With NKEMIFANYSAGRRYVRYST the amyloid nucleation score was “inactive”.
In the case of NKIVNECWHLICSFKLGNLQ, the amyloid nucleation score is reported as “inactive”.
With NKSYNDRARYVARGRDI the amyloid nucleation score was “inactive”.
With NKVFMEDQGLKVHWV the amyloid nucleation score was “inactive”.
With NKWYSNLQNCCCSLNHTGEG the amyloid nucleation score was 0.624 ± 0.23.
For NLAAEASVLVYEDELGCRHG, the amyloid nucleation score was “inactive”.
For NLAFAVYARTRLKLSPASCV, the amyloid nucleation score was “inactive”.
With NLCNWLSCSRTSCNLRLR the amyloid nucleation score was “inactive”.
In the case of NLDIFGNKMLMGRRGMLNMS, the amyloid nucleation score is reported as “inactive”.
For NLDLGVDLGMQPIGSIKKST, the amyloid nucleation score was “inactive”.
For NLFLGCQN, the amyloid nucleation score was “inactive”.
With NLFLRFIVTLWDRFCPYFYQ the amyloid nucleation score was “inactive”.
With NLKILPAVDHCSDHPMERNE the amyloid nucleation score was “inactive”.
With NLKKARSTSFIDEPECRPRP the amyloid nucleation score was -0.406 ± 1.1.
In the case of NLLDNRIFYHMD, the amyloid nucleation score is reported as “inactive”.
NLLGTVIIFLRDGSS showed an amyloid nucleation score of 2.13 ± 0.064.
In the case of NLLYSCVYRHQPLYPAMDFP, the amyloid nucleation score is reported as “inactive”.
Substance NLMEYSAC has an amyloid nucleation score of 0.182 ± 0.28.
For NLMGRCTEFRKYI, the amyloid nucleation score was “inactive”.
In the case of NLMWL, the amyloid nucleation score is reported as “inactive”.
For NLSSCIFVVS, the amyloid nucleation score was “inactive”.
In the case of NLYLSDNVCRVMKASVWVHA, the amyloid nucleation score is reported as “inactive”.
With NMKSCFHRMDPHWGTGFHSL the amyloid nucleation score was “inactive”.
For NMLMMWCFLVSYNEKMRKTV, the amyloid nucleation score was “inactive”.
For NMMAYFVFLGMKANFYMWVW, the amyloid nucleation score was “inactive”.
With NMVISYGVWYCDRKD the amyloid nucleation score was 0.84 ± 0.2.
In the case of NMVYLGDLTITMSTFDAFR, the amyloid nucleation score is reported as 0.53 ± 0.18.
For NMYLSMSLIFNTNYLPGMIS, the amyloid nucleation score was “inactive”.
With NMYVNTSCIVYFE the amyloid nucleation score was 3 ± 0.058.
In the case of NNMVHVVDKFFSLILVMVFS, the amyloid nucleation score is reported as “inactive”.
With NNSASNPILFGRYVTASREY the amyloid nucleation score was “inactive”.
With NNTDCYESNVVFFSTAIHLS the amyloid nucleation score was 1.6 ± 0.12.
In the case of NNTLV, the amyloid nucleation score is reported as “inactive”.
In the case of NNTNAQKLLINV, the amyloid nucleation score is reported as “inactive”.
Work on NNTSGNLVCFSVKCNVIVPY yielded an amyloid nucleation score of 2.42 ± 0.056.
With NNVKRSSPDSQVPSQVSMRF the amyloid nucleation score was “inactive”.
In the case of NNVVVL, the amyloid nucleation score is reported as “inactive”.
With NPDCSQTMARGLRNSLVFLQ the amyloid nucleation score was “inactive”.
For NPFMW, the amyloid nucleation score was “inactive”.
In the case of NPLFMQSLKLRCCRNLRFRS, the amyloid nucleation score is reported as “inactive”.
For NQEQWWLATAYPNVSWSIKL, the amyloid nucleation score was “inactive”.
With NQGWTCWCVSCCLGVKIVMI the amyloid nucleation score was “inactive”.
With NRASSVSCS the amyloid nucleation score was “inactive”.
With NRAVNFIVWWMYL the amyloid nucleation score was “inactive”.
With NRDNAEQYYRPTVTVCSEGW the amyloid nucleation score was “inactive”.
NRFCLRSTLSYSWYGDRSWA gave an amyloid nucleation score of 0.185 ± 0.7.
With NRFLNIQKRSTPLNLPSSSV the amyloid nucleation score was “inactive”.
For NRGNSIRRDNWFRVILRTCH, the amyloid nucleation score was “inactive”.
For NRILGGNLYVNVIDRIGGMV, the amyloid nucleation score was “inactive”.
With NRLNGSLILDRHLL the amyloid nucleation score was “inactive”.
In the case of NRMRPIDNLGHISMFGVLGG, the amyloid nucleation score is reported as “inactive”.
In the case of NRQVNCSFEGFSNRSKVYAY, the amyloid nucleation score is reported as “inactive”.
In the case of NRRFITYFSFRSPEVYKMQY, the amyloid nucleation score is reported as “inactive”.
For NRVYA, the amyloid nucleation score was “inactive”.
NRWTIPCFCGRKL gave an amyloid nucleation score of 1.12 ± 0.089.
For NRYIGNIYEKNGNSNFKPSI, the amyloid nucleation score was “inactive”.
For NRYLLRVVLYNSLTRLTVGF, the amyloid nucleation score was “inactive”.
With NSCSVVMFPYH the amyloid nucleation score was “inactive”.
In the case of NSDMESDSHSNKVVRYLCGP, the amyloid nucleation score is reported as “inactive”.
For NSFDNFFSLNLNTGAYY, the amyloid nucleation score was “inactive”.
For NSFDSMGSMFANRYRLNFPR, the amyloid nucleation score was “inactive”.
For NSGCQMFL, the amyloid nucleation score was “inactive”.
In the case of NSGHLVLGCMYIFSNGFVDR, the amyloid nucleation score is reported as 1.22 ± 0.14.
With NSIQEDV the amyloid nucleation score was “inactive”.
With NSKSVSWMFMPLQAFLCLIG the amyloid nucleation score was “inactive”.
For NSKYLLD, the amyloid nucleation score was “inactive”.
With NSLFSNCARLYGNRGTLGLS the amyloid nucleation score was “inactive”.
For NSLNMRFTLQQTLMGQMNYV, the amyloid nucleation score was “inactive”.
Work on NSMHAATWLEARRRLDKEGF yielded an amyloid nucleation score of -0.753 ± 1.3.
In the case of NSMSKVKMLVRSISTIEEVK, the amyloid nucleation score is reported as “inactive”.
With NSRFIMHHVGRAFDCDAYLF the amyloid nucleation score was -0.194 ± 0.8.
For NSSAKGFVQV, the amyloid nucleation score was “inactive”.
Work on NTCDAPMSNGYAWWD yielded an amyloid nucleation score of -0.399 ± 0.75.
In the case of NTIGNNVKYETRCNQSV, the amyloid nucleation score is reported as “inactive”.
In the case of NTRSPAESMHHPLMAMAVKN, the amyloid nucleation score is reported as “inactive”.
For NTSYLDASSNGNQRCIHSHK, the amyloid nucleation score was “inactive”.
For NTTCYIVRVMYVPHG, the amyloid nucleation score was “inactive”.
For NTYLVWIPRSFGQGKSNCLK, the amyloid nucleation score was “inactive”.
In the case of NVDHRTKSWLINWFTSLELL, the amyloid nucleation score is reported as “inactive”.
With NVFQVALRNSLSMLGSGMRM the amyloid nucleation score was “inactive”.
In the case of NVILYGKNLS, the amyloid nucleation score is reported as “inactive”.
Work on NVNLVSIVVVIMDEKDKVKE yielded an amyloid nucleation score of 2.84 ± 0.07.
For NVTCGRLTPSRDLKHAPVI, the amyloid nucleation score was -0.32 ± 1.1.
In the case of NVVCNDPPPGVYEDLGWTGI, the amyloid nucleation score is reported as “inactive”.
For NVVIFML, the amyloid nucleation score was 2.47 ± 0.076.
For NVWSVVFVSCLIIYGCPKWM, the amyloid nucleation score was 1.31 ± 0.087.
With NWGVYCVRDLWYRHSDMYHR the amyloid nucleation score was “inactive”.
